# Results taken from patent US7189694B2, “Inhibitors of autophosphorylation protein kinases” (University of Florida Research Foundation, Inc., priority 2003, dated 2007).
# Entries after “also recorded” stand apart in the source; their conditions may differ.
# Legend:
# recombinant human JAK2 = biological target: T1, recombinant human JAK2 (Homo sapiens, UniProt O60674); assay: In vitro JAK2 kinase assay (32P, SDS-PAGE, autoradiography); type: biochemical; settings: peptide at 50 μM
# T1 construct: purchased Upstate Biotechnology, Lake Placid, N.Y
# T1 sequence (O60674 whole entry): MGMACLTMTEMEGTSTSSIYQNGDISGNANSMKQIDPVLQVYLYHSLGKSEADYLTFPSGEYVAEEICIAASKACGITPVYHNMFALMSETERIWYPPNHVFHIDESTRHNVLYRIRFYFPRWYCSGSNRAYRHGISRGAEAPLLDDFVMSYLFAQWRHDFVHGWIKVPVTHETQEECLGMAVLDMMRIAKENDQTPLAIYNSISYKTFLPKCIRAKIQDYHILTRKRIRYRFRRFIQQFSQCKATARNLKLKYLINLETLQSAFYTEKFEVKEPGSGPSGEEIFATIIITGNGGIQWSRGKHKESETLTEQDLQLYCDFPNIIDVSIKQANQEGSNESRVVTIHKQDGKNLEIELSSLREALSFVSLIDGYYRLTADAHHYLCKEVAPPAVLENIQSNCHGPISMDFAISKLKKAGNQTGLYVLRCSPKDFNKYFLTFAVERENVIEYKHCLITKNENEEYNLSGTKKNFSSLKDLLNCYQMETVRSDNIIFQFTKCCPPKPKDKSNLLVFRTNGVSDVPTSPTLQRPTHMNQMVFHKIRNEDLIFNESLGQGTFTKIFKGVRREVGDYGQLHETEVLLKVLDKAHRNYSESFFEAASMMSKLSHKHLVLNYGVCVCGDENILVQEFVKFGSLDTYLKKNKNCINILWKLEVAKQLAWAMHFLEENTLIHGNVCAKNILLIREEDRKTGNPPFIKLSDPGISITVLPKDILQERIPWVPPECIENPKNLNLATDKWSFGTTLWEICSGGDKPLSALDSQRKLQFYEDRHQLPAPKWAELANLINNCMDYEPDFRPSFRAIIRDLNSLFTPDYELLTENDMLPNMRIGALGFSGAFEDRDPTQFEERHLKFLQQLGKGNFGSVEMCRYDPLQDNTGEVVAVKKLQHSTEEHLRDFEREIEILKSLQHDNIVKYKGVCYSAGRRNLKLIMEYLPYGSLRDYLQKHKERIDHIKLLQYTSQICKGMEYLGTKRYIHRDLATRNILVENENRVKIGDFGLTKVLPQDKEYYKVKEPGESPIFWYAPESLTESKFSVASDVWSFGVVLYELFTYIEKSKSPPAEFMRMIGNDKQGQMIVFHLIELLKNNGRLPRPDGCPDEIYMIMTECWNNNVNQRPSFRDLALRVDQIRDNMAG
# Experimental: Determination of JAK2 autophosphorylation activity was performed in reaction mixtures containing recombinant human JAK2 immobilized on agarose beads (Upstate Biotechnology, Lake Placid, N.Y.), 1 μCi/μl of [^32P]γ-ATP (Amersham Biosciences, Piscataway, N.J.), and either Tkip or JAK 2 WT peptide incubated in kinase buffer (10 mM HEPES [pH 7.4], 50 mM sodium chloride, 0.1 mM sodium orthovanadate, 5 mM magnesium chloride, 5 mM manganese chloride). JAK2 kinase assays were performed in 35 μL reaction volumes containing 10.5 μL Tkip, 20 μL JAK2 agarose beads, 1 μL sIFNGR-1, and 3.5 μL [^32P]γ-ATP incubated at 30° C. for 30 min with intermittent agitation. […] EGFR, VEGFR, and JAK2 kinase reactions were terminated with the addition of 5 μl 6×SDS sample buffer (0.5 M Tris-HCl [pH 6.8], 36% glycerol, 10% SDS, 9.3% DTT, 0.012% bromophenol blue). Incubation of JAK2 agarose beads in SDS sample buffer (100° C.) was designed to elute bound proteins from the agarose beads. The reaction mixtures were separated on a 10% SDS polyacrilamide gel. Autoradiography was used to determine phosphorylation activity.
# [1] = system: experimental allergic encephalomyelitis; assay: Experimental allergic encephalomyelitis (EAE) in MBP-immunized NZW mice; type: in vivo
# Experimental: NZW mice were injected intraperitoneally with PBS or Tkip (63 μg/mouse) every other day starting the day of immunization with myelin basic protein (MBP) for induction of EAE. Mice were followed daily for signs of EAE, and mean severity of paralysis for each group was graded based on the following scale: 1, loss of tail tone, 2, hind leg weakness, 3, paraparesis, 4, paraplegia, 5, moribund, death. […] All mice in the control group had disease (disease incidence=4/4), while one mouse in the Tkip group had disease (disease incidence=1/5).
# NZW mice were immunized with myelin basic protein (MBP) (300 ug) emulsified in complete Freund's adjuvant for the induction of experimental allergic encephalomyelitis (EAE). Tkip peptide (63 μg/mouse) was administered to mice every other day starting the day of immunization. Phosphate buffered saline (PBS) was used as the vehicle of transfer and as the control agent for the treatment of the control group. Mice were followed daily for signs of EAE and mean severity of paralysis for each group was graded based on the scale presented in the legend of FIG. 9. […] Furthermore, the mean severity of disease for the control group (2.1) was twice as high as that of the Tkip group (0.8) at its peak. The time of onset of disease for the control group and Tkip-treated group was similar (24 days post immnunization). Thus, treatment of MBP-immunized mice with Tkip peptide protects them from the autoimmune disease, EAE.
# EGFR = biological target: T2, EGFR (Homo sapiens, UniProt P00533); assay: In vitro EGFR autophosphorylation kinase assay; type: biochemical; settings: peptide at 50 μM; FIG. 2E
# T2 construct: human EGFR isolated from A431 cells; purchased Upstate Biotechnology, Lake Placid, N.Y; host or cells: A431 cells (endogenous receptor, isolated)
# Experimental: (§1) In vitro Kinase Assays: Autophosphorylation activity of EGFR and VEGFR-1 was measured in a reaction mixture containing kinase buffer (20 mM Tris-HCl [pH 7.5], 2 mM dithioreitol, 50 mM potassium chloride, 0.3 mM sodium orthovanadate, 5 mM magnesium chloride, 10 mM glycerophosphate, 2 mM EGTA, […] manganese chloride), Tkip, substrates, and 5 μCi of [^32P]γ-ATP (specific activity 6000 Ci/mmol; 1 mCi=37 Mbq) (Amersham Biosciences, Piscataway, N.J.). EGFR and VEGFR in vitro kinase assays were carried out in 22.5 μL reaction volumes containing 10 μL Tkip, 2.5 μL substrates, and 10 μL [^32P]γ-ATP incubated at 30° C. for 10 min. EGFR (supplied precomplexed with EGF) was obtained from Upstate Biotechnology (Lake Placid, N.Y.). VEGFR and VEGF were obtained from Calbiochem (San Diego, Calif.) and Peprotech (Rocky Hill, N.J.), respectively.
# (§2) Determination of JAK2 autophosphorylation activity was performed in reaction mixtures containing recombinant human JAK2 immobilized on agarose beads (Upstate Biotechnology, Lake Placid, N.Y.), 1 μCi/μl of [^32P]γ-ATP (Amersham Biosciences, Piscataway, N.J.), and either Tkip or JAK 2 WT peptide incubated in kinase buffer (10 mM HEPES [pH 7.4], 50 mM sodium chloride, 0.1 mM sodium orthovanadate, 5 mM magnesium chloride, 5 mM manganese chloride). […]
# c-src = biological target: T3, c-src (Homo sapiens, UniProt P12931); assay: Src kinase assay with substrate peptide (P81 discs); type: biochemical; settings: peptide at 50 μM; FIG. 2C
# T3 construct: purchased Upstate Biotechnology, Lake Placid, N.Y
# Experimental: (§3) Src kinase activity was performed with a Src substrate peptide (KVEKIGEGTYGVVYK) (SEQ ID NO. 73) using a Src kinase assay kit according to the manufacturer's specifications (Upstate Biotechnology, Lake Placid, N.Y.) according to the manufacturer's specifications. Briefly, Src substrate peptide was incubated in Src kinase buffer (100 mM Tris-HCl [pH 7.2], 125 mM MgCl2, 25 mM MnCl2, 2 mM EGTA, 0.02 mM Na3VO4, and 2 mM dithioreitol), 5 μCi of [^32P]γ-ATP (75 mM MnCl2, 500 μM ATP), recombinant human Src (Upstate Biotechnology, Lake Placid, N.Y.), and Tkip, JAK2 WT peptide, or in the absence of peptide for 10 min at 30° C. Reaction mixtures were spotted on P81 phosphocellulose discs (supplied with kit) to bind phosphorylated Src substrate peptide, washed three times for 5 min with 0.75% phosphoric acid, washed twice with acetone for 1 min, and placed in vials to which 4 ml of ScintiVerse® (Fisher, Pittsburgh, Pa.) was added. The phosphocellulose discs were analyzed using a liquid scintillation counter to measure ^32P-labeled proteins. For comparison with Src, JAK2 was also assayed using the same procedure. The assay was setup as described above for the Src kinase assay. However, reactions were incubated in the presence of 2 mM dithioreitol in the buffer to release JAK2 from the agarose beads. Following the appropriate incubation period reactions were gently centrifuged. […]
# JAK2/IFNGR-1 = biological target: T4, JAK2/IFNGR-1 (Homo sapiens, UniProt O60674); assay: JAK2 kinase assay processed on P81 phosphocellulose discs (32P incorporation); type: biochemical; settings: peptide at 50 μM; FIG. 2D
# T4 construct: purchased Upstate Biotechnology, Lake Placid, N.Y
# T4 sequence (O60674 whole entry): as above
# Experimental: as §3
# VEGFR = biological target: T5, VEGFR (Homo sapiens, UniProt P17948); assay: In vitro VEGFR autophosphorylation kinase assay; type: biochemical; settings: peptide at 50 μM; FIG. 2B
# T5 construct: purchased Calbiochem, San Diego, Calif
# T5 sequence (P17948 27-1338): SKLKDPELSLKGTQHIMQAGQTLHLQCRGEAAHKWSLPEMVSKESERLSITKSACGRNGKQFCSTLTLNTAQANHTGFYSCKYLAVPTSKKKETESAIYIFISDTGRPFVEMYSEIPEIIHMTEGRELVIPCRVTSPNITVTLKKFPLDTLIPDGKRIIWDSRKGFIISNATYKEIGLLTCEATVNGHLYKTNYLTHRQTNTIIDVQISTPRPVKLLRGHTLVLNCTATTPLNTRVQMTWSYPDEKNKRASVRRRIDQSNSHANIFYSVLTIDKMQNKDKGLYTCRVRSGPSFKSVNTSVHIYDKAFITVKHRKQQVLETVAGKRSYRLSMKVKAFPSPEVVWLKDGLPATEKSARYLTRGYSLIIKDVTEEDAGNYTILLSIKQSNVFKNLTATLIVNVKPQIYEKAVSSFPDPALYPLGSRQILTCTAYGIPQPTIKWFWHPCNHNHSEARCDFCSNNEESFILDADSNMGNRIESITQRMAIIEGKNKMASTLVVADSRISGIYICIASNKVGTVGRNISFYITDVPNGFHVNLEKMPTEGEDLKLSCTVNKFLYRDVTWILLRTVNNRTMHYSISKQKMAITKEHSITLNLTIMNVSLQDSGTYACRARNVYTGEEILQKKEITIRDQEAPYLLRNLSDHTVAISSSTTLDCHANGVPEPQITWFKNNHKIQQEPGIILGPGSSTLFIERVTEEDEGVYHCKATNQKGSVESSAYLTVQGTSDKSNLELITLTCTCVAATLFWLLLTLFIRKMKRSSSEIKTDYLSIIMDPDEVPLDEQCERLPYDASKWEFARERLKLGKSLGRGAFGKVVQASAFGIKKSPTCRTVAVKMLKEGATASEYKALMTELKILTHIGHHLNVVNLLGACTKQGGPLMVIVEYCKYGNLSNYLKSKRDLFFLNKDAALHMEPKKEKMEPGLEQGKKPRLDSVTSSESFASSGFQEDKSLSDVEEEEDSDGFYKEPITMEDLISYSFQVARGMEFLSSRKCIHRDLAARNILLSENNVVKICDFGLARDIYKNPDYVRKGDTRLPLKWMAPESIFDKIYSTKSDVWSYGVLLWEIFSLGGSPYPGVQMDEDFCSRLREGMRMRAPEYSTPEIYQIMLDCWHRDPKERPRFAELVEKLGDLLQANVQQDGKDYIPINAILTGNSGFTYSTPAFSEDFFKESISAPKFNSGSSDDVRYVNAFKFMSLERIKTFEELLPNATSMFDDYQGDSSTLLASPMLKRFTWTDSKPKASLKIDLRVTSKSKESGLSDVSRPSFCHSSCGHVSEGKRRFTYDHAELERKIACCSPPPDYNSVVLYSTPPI
# Experimental: as §1, §2
# [2] = biological target: T6, JAK2 WT peptide (JAK2 autophosphorylation site 1001LPQDKEYYKVKEP) (Homo sapiens, UniProt O60674); assay: ELISA binding of biotinylated JAK2 WT peptide to solid-phase peptides
# T6 construct: made in house; host or cells: chemical synthesis (Fmoc)
# Experimental: (§4) Binding assays: For ELISA binding assays Tkip and other peptides to be tested were bound to 96-well plates in 0.1 M carbonate binding buffer (pH 9.6) at a final concentration of 3 μg/well (50 μl). Wells were then washed three times with wash buffer containing 0.9% NaCl and 0.05% tween-20 in PBS and blocked with 2% gelatin and 0.05% tween-20 in PBS for 1 h at room temperature. Wells were then washed three times with wash buffer and incubated with various concentrations of biotinylated JAK2 WT peptide and biotinylated P-JAK2 WT peptide for 1 h at room temperature in blocking buffer. Following incubation, wells were washed five times with wash buffer to remove any unbound biotinylated peptides. Bound biotinylated peptides were detected by incubation with a 1:500 dilution of NEUTRAVIDIN biotin binding-protein conjugated with horseradish peroxidase (Molecular Probes, Eugene, Oreg.) in blocking buffer for 1 h at room temperature. Wells were then washed five times with wash buffer and developed with a solution of o-phenylenediamine (OPD) in stable peroxidase buffer (Pierce, Rockford, Ill.). The assay was stopped with the addition of 2 M H2SO4 (50 μl) to each well. Absorbance was measured using a 450 microplate reader (Bio-rad, Hercules, Calif.) at 490 nm. Control experiments were carried out as described above in the absence of immobilized peptides.
# [3] = biological target: T7, p-JAK2 WT peptide (phosphorylated at 1007Y) (Homo sapiens, UniProt O60674); assay: Solid phase binding of biotinylated phosphorylated JAK2 WT peptide to immobilized Tkip; settings: FIG. 4
# T7 construct: made in house; host or cells: chemical synthesis (Fmoc)
# Experimental: as §4
sequence,measurement,setting,value
WLVFFVIFYFFR (amino acid sequence of a peptide that can be used according to the present invention) [Tkip],inhibition of JAK2 autophosphorylation,recombinant human JAK2,completely inhibited; also recorded: also inhibited
same,inhibition of JAK2 phosphorylation of IFNGR-1,recombinant human JAK2,completely inhibited; also recorded: also inhibited
same,time of onset of disease,[1]; 63 μg/mouse every other day,24 days post immnunization
same,mean severity of disease (paralysis scale 1-5),"[1]; 63 μg/mouse every other day, at its peak",0.8
same,incidence of disease (EAE),[1]; 63 μg/mouse intraperitoneally every other day from day of immunization,1/5
same,inhibition of EGFR autophosphorylation,EGFR,completely inhibited
same,inhibition of c-src phosphorylation of a protein substrate,c-src,failed to inhibit
same,inhibition of 32P incorporation into JAK2/IFNGR-1,JAK2/IFNGR-1,greater than 95%
same,inhibition of VEGFR autophosphorylation,VEGFR,did not inhibit
same,binding of biotinylated JAK2 WT peptide to solid-phase peptide,"[2]; FIG. 1A, ELISA, peptides coated on 96-well plates",bound only to Tkip peptide in a dose-dependent manner
same,binding of Tkip to unphosphorylated JAK2 WT,"[2]; FIG. 4, immobilized Tkip",bound both JAK2 WT and p-JAK2 WT in a dose-dependent manner
same,"fifty percent endpoint concentration, fold lower for p-JAK2 WT binding versus unphosphorylated JAK2 WT binding",[3],approximately 9 fold
same,binding of Tkip to p-JAK2 WT,[3]; immobilized Tkip,binding was most efficient to p-JAK2 WT
